Test results published in patent US20210405060A1 (published 2021).
Each block holds one molecule with its values, some of them ahead of it.

How the values were obtained:
[1] = target: PTP1BS187C lite / C3-SLF conjugate (UniProt P18031); test: X-ray crystal structure FKBP12-C3SLF-PTP1BS187C
[2] = target: T1, FKBP12-Compound 2 binary complex (UniProt P62942 1-108); test: ITC, 298 K; FKBP12 + Compound 2 in cell, CEP25011.4 in syringe
T1 construct: FKBP12 (10 µM) pre-incubated with 20 µM of the non-covalent ligand Compound 2 in the ITC cell
Protocol: (§1) CEP250 protein stocks are diluted to 50 μM in assay buffer and supplemented with 20 μM compound (1% DMSO final) before being filled into the injection syringe. A control experiment in the absence of compound is also run to determine the heat associated with operational artifacts and the dilution of titrant as it is injected from the syringe into the reaction cell.
(§2) Data Fitting: Data were fitted with the Origin ITC200 software according to the following procedure: [0473] 1) Read raw data [0474] 2) In “mRawITC”: adjust integration peaks and baseline, integrate all peaks [0475] 3) In “Delta H”—data control: remove bad data (injection #1 and other artifacts), subtract straight line (background subtraction) [0476] 4) In “Delta H”—model fitting: select one set of sites model, perform fitting with Levenberg-Marquardt algorithm until Chi Square is not reduced further, finish with “done” (parameters N, Kₐ and ΔH are calculated based on fitting)

[3] = target: T2, FKBP12-Compound 1 binary complex (UniProt P62942 1-108); test: ITC, 298 K; FKBP12 + Compound 1b in cell, CEP25011.4 in syringe
T2 construct: FKBP12 (10 µM) pre-incubated with 20 µM of the non-covalent ligand Compound 1 in the ITC cell
Protocol: as §1, §2

[4] = target: T3, 12xHIS tagged FKBP12 / Compound 1 binary complex (UniProt P62942 1-108, limits assumed); test: SPR (Biacore X100), 12xHIS FKBP12 on NTA chip with 1 µM Compound 1, CEP250 as analyte, 1:1 model, 25 °C
T3 construct: Immobilized on an NTA chip, with 1 µM Compound 1 in all buffers; also called immobilized FKBP12-Compound 1 binary complex; not shown: 12xHIS tag
Protocol: Experimental Protocol: Experiments are performed at 25° C. […] The second flow cell is not activated as a reference for non-specific interaction of the analyte to the sensor chip. […] The surface is regenerated between analyte injections with 350 mM EDTA.
Data Fitting: The BiaEvaluation software program is used for data fitting. All data is reference subtracted against both the reference flow cell and a buffer injection. For kinetic analyses, data is locally fit to a 1:1 interaction model.

[5] = target: MCL1S245C lite / C3-SLF conjugate (UniProt Q07820); test: X-ray crystal structure MCL1S245C/C3SLF/FKBP52, 3.0 Å
Chain of MCL1S245C lite / C3-SLF conjugate (Q07820 other isoform, or with tags, fused parts or gaps with the stated changes limits assumed): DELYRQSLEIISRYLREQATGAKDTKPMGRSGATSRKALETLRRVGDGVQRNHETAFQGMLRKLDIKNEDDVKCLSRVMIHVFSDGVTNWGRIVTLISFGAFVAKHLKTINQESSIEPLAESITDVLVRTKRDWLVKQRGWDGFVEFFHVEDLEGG

Chain of PTP1BS187C lite / C3-SLF conjugate (P18031 other isoform, or with tags, fused parts or gaps limits assumed, change not shown): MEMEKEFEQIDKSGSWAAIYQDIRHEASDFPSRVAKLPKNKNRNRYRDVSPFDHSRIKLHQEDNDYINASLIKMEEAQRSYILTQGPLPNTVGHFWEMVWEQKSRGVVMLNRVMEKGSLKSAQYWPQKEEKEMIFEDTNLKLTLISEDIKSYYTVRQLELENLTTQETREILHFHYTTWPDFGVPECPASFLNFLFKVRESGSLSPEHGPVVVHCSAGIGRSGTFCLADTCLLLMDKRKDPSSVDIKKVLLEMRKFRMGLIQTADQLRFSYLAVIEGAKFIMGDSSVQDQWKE
T1 sequence (P62942 whole entry, one chain of several): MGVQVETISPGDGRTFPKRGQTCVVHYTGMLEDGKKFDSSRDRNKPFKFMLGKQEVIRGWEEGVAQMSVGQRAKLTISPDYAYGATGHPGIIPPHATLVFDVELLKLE
T2 sequence (P62942 whole entry, one chain of several): as above
T3 sequence (P62942 whole entry, one chain of several): as above

- buried surface area of PTP1BS187C [1]: 427 Å^2
- total buried surface area of the complex [1]: 1040 Å^2
Molecule: FKBP12 (in-house) (from UniProt P62942 1-108) (enzyme)

- Kd [2]: 80 nM
- Kd [3]: 70 nM
- Kd [4]: 5.4 nM
B1: CEP25011.4 (residues 2134-2231) (other, UniProt Q9BV73 2134-2231, looked up)
chain: MEEQSLKLDSLEPRLQRELERLQAALRQTEAREIEWREKAQDLALSLAQTKASVSSLQEVAMFLQASVLERDSEQQRLQDELELTRRALEKERLHSPG
notes: range 2134-2231

- buried surface area contributed by FKBP52 [5]: 804 Å^2
- share of buried surface area contributed by FKBP52 [5]: 60%
- total buried surface area of the complex [5]: 1410 Å^2
B2: FKBP52 (in-house, residues 1-140) (enzyme, UniProt Q02790 1-140, looked up)
chain: MTAEEMKATESGAQSAPLPMEGVDISPKQDEGVLKVIKREGTGTEMPMIGDRVFVHYTGWLLDGTKFDSSLDRKDKFSFDLGKGEVIKAWDIAIATMKVGEVCHITCKPEYAYGSAGSPPKIPPNATLVFEVELFEFKGE
